Experimental data: US20210063414A1, “METHODS FOR PREVENTING AND/OR TREATING BONE LOSS CONDITIONS BY MODULATING IRISIN” (Dana-Farber Cancer Institute, Inc., priority 2018, published 2021)

Key:
[1] = molecular target: T1, MLO-Y4 cell surface proteins (Mus musculus, UniProt P16675); test: Crosslinking/co-immunoprecipitation/mass spectrometry (TMT quantitative proteomics) to identify irisin receptors; type: binding; conditions: co-precipitated protein Ctsa (PPGB_MOUSE)
T1 construct: endogenous in cells; host or cells: MLO-Y4
T1 sequence (P16675 24-474): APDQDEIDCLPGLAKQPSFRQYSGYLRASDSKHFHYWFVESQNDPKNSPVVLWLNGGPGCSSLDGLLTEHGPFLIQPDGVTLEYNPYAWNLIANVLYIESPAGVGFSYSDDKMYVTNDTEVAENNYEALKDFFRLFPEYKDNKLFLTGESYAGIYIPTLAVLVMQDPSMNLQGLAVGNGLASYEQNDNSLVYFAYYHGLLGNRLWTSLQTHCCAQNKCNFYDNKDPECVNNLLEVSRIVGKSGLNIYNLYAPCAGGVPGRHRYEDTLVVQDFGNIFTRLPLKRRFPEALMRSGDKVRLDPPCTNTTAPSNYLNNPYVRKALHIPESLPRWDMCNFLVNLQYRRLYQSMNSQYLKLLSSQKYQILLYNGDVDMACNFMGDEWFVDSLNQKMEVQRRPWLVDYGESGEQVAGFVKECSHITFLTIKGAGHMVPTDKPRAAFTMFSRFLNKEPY
Summary of the method: (§1)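 Mouse MLO-Y4 cells were switched to serum-free FreeStyle medium for 4 h, chilled, then exposed to 10 nM His-tagged irisin (or adipsin as control) for 20 min. Cells were crosslinked with 1.5 mM DTSSP (30 min, ice), and bound proteins were pulled down on Ni-NTA and eluted with 250 mM imidazole. Eluates were separated by SDS-PAGE, trypsin-digested in gel, TMT 6-plex labelled and quantified by MS3-based LC-MS/MS on an Orbitrap Fusion Lumos.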

[2] = molecular target: T2, MLO-Y4 cell surface proteins (Mus musculus, UniProt P41216); test: as above; type: binding; conditions: co-precipitated protein Acsl1 (ACSL1_MOUSE)
T2 construct: endogenous in cells; host or cells: MLO-Y4
T2 sequence (P41216 1-699): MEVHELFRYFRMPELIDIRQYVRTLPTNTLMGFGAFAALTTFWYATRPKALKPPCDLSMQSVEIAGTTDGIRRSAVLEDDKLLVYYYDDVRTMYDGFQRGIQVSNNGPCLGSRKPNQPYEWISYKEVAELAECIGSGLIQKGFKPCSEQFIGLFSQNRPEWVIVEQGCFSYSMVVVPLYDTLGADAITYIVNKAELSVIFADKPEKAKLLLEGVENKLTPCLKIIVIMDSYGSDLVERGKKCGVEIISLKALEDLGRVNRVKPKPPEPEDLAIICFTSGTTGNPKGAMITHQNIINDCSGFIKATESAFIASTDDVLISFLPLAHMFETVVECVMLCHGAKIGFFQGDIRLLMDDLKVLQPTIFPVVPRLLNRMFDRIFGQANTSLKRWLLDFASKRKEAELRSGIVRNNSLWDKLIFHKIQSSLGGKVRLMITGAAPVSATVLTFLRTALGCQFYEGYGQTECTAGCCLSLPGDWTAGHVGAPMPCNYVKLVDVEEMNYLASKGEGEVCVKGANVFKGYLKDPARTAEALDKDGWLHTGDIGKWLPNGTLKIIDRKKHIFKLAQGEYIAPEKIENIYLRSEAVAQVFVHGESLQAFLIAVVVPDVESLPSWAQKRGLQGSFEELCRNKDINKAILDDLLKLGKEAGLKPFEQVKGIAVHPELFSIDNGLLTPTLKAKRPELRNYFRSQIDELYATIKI
Summary of the method: as §1

adipsin
TMT signal-to-noise ratio [1]: 357.95
TMT signal-to-noise ratio [2]: 361.33
